In article PMC3458034, “Structure and Flexibility of the C-Ring in the Electromotor of Rotary FoF1-ATPase of Pea Chloroplasts” (PLoS ONE, 2012):

Target: the molecule itself
Test: crystal structure; c-ring from a native preparation in detergent; crystals grown in 100 mM Na-acetate pH 4.5, 50 mM MgCl2, 50 mM NaCl, 10 mM yttrium chloride, 14-24% PEG 550 MME; 3.4 Å

B1: chloroplast ATP synthase subunit-c of the green pea (Pisum sativum), as the c-ring (natural protein, UniProt P08212 1-81, looked up)
chain: MNPLIAAASVIAAGLAVGLASIGPGVGQGTAAGQAVEGIARQPEAEDKIRGTLLLSLAFMEALTIYGLVVALALLFANPFV
notes: ATP synthase (CFoCF1) subunit c of the chloroplast, Pisum sativum; each monomer is printed as an 81-residue hairpin-shaped polypeptide (TM1 residues 4-41, loop 42-45, TM2 46-75); Native preparation, no tags; Homo-tetradecameric ring in the crystal; also called c-subunit; c14; source: purified from thylakoid membranes of P. sativum var; Alaska young leaves (DDM, PEG precipitation, sucrose …)
- stoichiometry N: 14
